Measurements published in the RNAGym collection of RNA variant scans (doi:10.1073/pnas.2313332121).

B1: TPR t1 (parent)
chain: GACCAAUCUGCCCUCAGAGCUCGAGAACAUCUUCGGAUGCAGAGGAGGCAGGCUUCGGUGGCGCGAUAGCGCCAACGUCCUCAACCUCCAAUGCAUCCCACCACAUGAUGAUGCCUGAAGAGCCUUGGUUUUUUG

Variants of: B1
Experiment: polymerase ribozyme fitness, log enrichment relative to wild type (log ratio); higher = more active; in vitro selection for triplet polymerase activity
Summary of the method: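 In triplicate, a single round of in vitro selection was run on each mutant library, PCR-built and transcribed, covering one subunit of a heterodimeric triplet polymerase ribozyme. Frozen incubation at −7 °C followed annealing with a biotinylated primer, partner subunit and triplets, and extended constructs were then gel-excised, streptavidin-captured and taken through RT-PCR. Fitness is the logarithm of genotype enrichment over wild-type enrichment, from inverse-variance-weighted replicate averages of Illumina-sequenced inputs and outputs. […] only genotypes with ≥10 input reads and ≥1 read per output were kept.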

Variant | polymerase ribozyme fitness (log ratio)
GACCAAUCUGCCCUCAGAGCUCGAGAACAUCUUCGGAUGCAGAGGAGGCAGGCUUCGGUGGCGCGAUAGCGCAAACGUCCUCAACCUCCAAUGCAUCCCACCACAUGAUGAUGGCUGAAGAGCCUUGGUAUUUUG [C73A C114G U130A] | -2.99
GACCAAUCUGCCCUCAGAGCUCGAGAACAUCUUCGGAUGCAGAGGAGGCAGGCUUCGGUGGCGCGAUAGCGCAAACGUCCUCAACCUCCAAUACAUCCCACCACAUGAUGAUGCCUGAAGAGCCUUGGUUGUUUG [C73A G93A U131G] | -0.498
GACCAAUCUGCCCUCAGAGCUCGAGAACAUCUUCGGAUGCAGAGGAGGCAGGCUUCGGUGGCGCGAUAGCGCAAACGUCCUCAACCUCCAAUGCAUCCCACCACAUCAUGAUGCCUGAAGAGCCUUGGUUUUUUG [C73A G107C] | -4.16
GACCAAUCUGCCCUCAGAGCUCGAGAACAUCUUCGGAUGCAGAGGAGGCAGGCUUCGGUGGCGCGAUAGCGCAAACGUCCUCAACCUCCAAUGCAUCCCACCACAUGAUGAUACCUGAAGAGCCUUGGUUUUUUG [C73A G113A] | -0.815
GACCAAUCUGCCCUCAGAGCUCGAGAACAUCUUCGGAUGCAGAGGAGGCAGGCUUCGGUGGCGCGAUAGCGCAAACGUCCUCAACCUCCAAUGCAUCCCACCACAUGAUGAUACCUGAAGAGCCUUGGUUAUUUG [C73A G113A U131A] | -1.4
GACCAAUCUGCCCUCAGAGCUCGAGAACAUCUUCGGAUGCAGAGGAGGCAGGCUUCGGUGGCGCGAUAGCGCAAACGUCCUCAACCUCCAAUGCAUCCCACCACAUGAUGAUGCCUGAAAAGCCUUGGUUUUUUG [C73A G120A] | 0.528
GACCAAUCUGCCCUCAGAGCUCGAGAACAUCUUCGGAUGCAGAGGAGGCAGGCUUCGGUGGCGCGAUAGCGCAAACGUCCUCAACCUCCAAUGCAUCCCACCACAUGAUGAUGCCUGAAUAGCCUUGGUUUUUUG [C73A G120U] | 0.347
GACCAAUCUGCCCUCAGAGCUCGAGAACAUCUUCGGAUGCAGAGGAGGCAGGCUUCGGUGGCGCGAUAGCGCAAACGUCCUCAACCUCCAAUGCAUCCCACCACAUGAUGAUGCCUGAAUCGCCUUGGUUUUUUG [C73A G120U A121C] | 0.179
GACCAAUCUGCCCUCAGAGCUCGAGAACAUCUUCGGAUGCAGAGGAGGCAGGCUUCGGUGGCGCGAUAGCGCAAACGUCCUCAACCUCCAAUGCAUCCCACCACAUGAUGAUGCCUGAAGAGCCUUGUUUUUUUG [C73A G128U] | -2.16
GACCAAUCUGCCCUCAGAGCUCGAGAACAUCUUCGGAUGCAGAGGAGGCAGGCUUCGGUGGCGCGAUAGCGCAAACGUCCUCAACCUCCAAUGCAUCCCACCACAUGAUGAUGCCUGAAGAGCCUUGGUUUUUUC [C73A G135C] | 0.342
GACCAAUCUGCCCUCAGAGCUCGAGAACAUCUUCGGAUGCAGAGGAGGCAGGCUUCGGUGGCGCGAUAGCGCAAACGUCCACAACCUCCGAUGCAUCCCACCACAUGAUGAUGCCUGAAGAGCCUUGGUUUUUUG [C73A U81A A90G] | -0.106
GACCAAUCUGCCCUCAGAGCUCGAGAACAUCUUCGGAUGCAGAGGAGGCAGGCUUCGGUGGCGCGAUAGCGCAAACGUCCUCAACCCCCAAUGCAUCCCACCACAUGAUGAUGCCUGAAGAGCCUUGGUUUUUUG [C73A U87C] | 0.572
GACCAAUCUGCCCUCAGAGCUCGAGAACAUCUUCGGAUGCAGAGGAGGCAGGCUUCGGUGGCGCGAUAGCGCAAACGUCCUCAACCCCCAAUGCACCCCACCACAUGAUGGUGCCUGAAGAGCCUUGGUUUUUUG [C73A U87C U96C A111G] | -0.596
GACCAAUCUGCCCUCAGAGCUCGAGAACAUCUUCGGAUGCAGAGGAGGCAGGCUUCGGUGGCGCGAUAGCGCAAACGUCCUCAACCUCCAAGGCAUCCCACCACAUGAUGAUGCCUGAAGAGCCUUGGUUUUUUG [C73A U92G] | -2.07
GACCAAUCUGCCCUCAGAGCUCGAGAACAUCUUCGGAUGCAGAGGAGGCAGGCUUCGGUGGCGCGAUAGCGCAAACGUCCUCAACCUCCAAUGCACCCCACCACAUGAUGAUGCCUGAAGAGCCUUGGUUUUUUG [C73A U96C] | 0.0129
GACCAAUCUGCCCUCAGAGCUCGAGAACAUCUUCGGAUGCAGAGGAGGCAGGCUUCGGUGGCGCGAUAGCGCAAACGUCCUCAACCUCCAAUGCAUCCCACCACAUGAUGAUGCCUGAAGAGCCAUGGUUUUUUG [C73A U125A] | -0.432
GACCAAUCUGCCCUCAGAGCUCGAGAACAUCUUCGGAUGCAGAGGAGGCAGGCUUCGGUGGCGCGAUAGCGCGAACGUCCUCCACCUCCAAUGCAUCCCAGCACAUGAUGAUGCUAGAAGAGCCUUGGUUUUUUG [C73G A83C C101G C115U U116A] | -5.12
GACCAAUCUGCCCUCAGAGCUCGAGAACAUCUUCGGAUGCAGAGGAGGCAGGCUUCGGUGGCGCGAUAGCGCGAACGUCCUCAUCCUCCAAUGCAUCCCACCACAUGAUGAUGCCUGAAGAGCCUUGGUUUUUUG [C73G A84U] | -1.52
GACCAAUCUGCCCUCAGAGCUCGAGAACAUCUUCGGAUGCAGAGGAGGCAGGCUUCGGUGGCGCGAUAGCGCGAACGUCCUCAUCCUCCAAUGCAUCCCACCACAUGAUGACGCCUGAAGAGCCUUGGUUUUUUG [C73G A84U U112C] | 0.269
GACCAAUCUGCCCUCAGAGCUCGAGAACAUCUUCGGAUGCAGAGGAGGCAGGCUUCGGUGGCGCGAUAGCGCGAACGUCCUCAACCUCCAAUGCAUCCCUCCACAUGAUGAUGCCUGAAGAGCCUUGGUUUUUUG [C73G A100U] | -1.09
GACCAAUCUGCCCUCAGAGCUCGAGAACAUCUUCGGAUGCAGAGGAGGCAGGCUUCGGUGGCGCGAUAGCGCGAACGUCCUCAACCUCCAAUGCAUCCCACCACUUGAUGAUGCCUGAAGAGCCUUGGUUUUUUG [C73G A105U] | -2.27

Variant | polymerase ribozyme fitness (log ratio)
GACCAAUCUGCCCUCAGAGCUCGAGAACAUCUUCGGAUGCAGAGGAGGCAGGCUUCGGUGGCGCGAUAGCGCGAACGUCCUCAACCUCCAAUGCAUCCCACCACAUGAUGUUGCCUGAAGAGCCUUGGUUUUUUG [C73G A111U] | -4.08
GACCAAUCUGCCCUCAGAGCUCGAGAACAUCUUCGGAUGCAGAGGAGGCAGGCUUCGGUGGCGCGAUAGCGCGAACGUCAUCAACCUCCAAUGCAUCCCACCACAUGAUGAUGCCUGAAGAGCCUUGGUUUUUUG [C73G C80A] | -4.88
GACCAAUCUGCCCUCAGAGCUCGAGAACAUCUUCGGAUGCAGAGGAGGCAGGCUUCGGUGGCGCGAUAGCGCGAACGUCCUCAACAUCCAAUGCAUCCCACCACAUGAUGAUGCCUGAAGAGCCUUGGUUUUUUG [C73G C86A] | -1.38
GACCAAUCUGCCCUCAGAGCUCGAGAACAUCUUCGGAUGCAGAGGAGGCAGGCUUCGGUGGCGCGAUAGCGCGAACGUCCUCAACUUCCAAUGCAUCCCACCACAUGAAGAUGCCUGAAGAGCCUUGGUUUUUUG [C73G C86U U109A] | -6.23
GACCAAUCUGCCCUCAGAGCUCGAGAACAUCUUCGGAUGCAGAGGAGGCAGGCUUCGGUGGCGCGAUAGCGCGAACGUCCUCAACCUCCAAUGCAUCACACCACAUGAUGAUGCCUGAAGAGCCUUGGUUUUUUG [C73G C98A] | -6.22
GACCAAUCUGCCCUCAGAGCUCGAGAACAUCUUCGGAUGCAGAGGAGGCAGGCUUCGGUGGCGCGAUAGCGCGAACGUCCUCAACCUCCAAUGCAUCCCAACACAUGAUGAUGCCUGAACAGCCUUGGUUUUUUG [C73G C101A G120C] | -0.681
GACCAAUCUGCCCUCAGAGCUCGAGAACAUCUUCGGAUGCAGAGGAGGCAGGCUUCGGUGGCGCGAUAGCGCGAACGUCCUCAACCUCCAAUGCAUCCCAUCACAUGAUGACGCCUCAAGAGCCUUGGUUUUUUG [C73G C101U U112C G117C] | -2.53
GACCAAUCUGCCCUCAGAGCUCGAGAACAUCUUCGGAUGCAGAGGAGGCAGGCUUCGGUGGCGCGAUAGCGCGAACGUCCUCAACCUCCAAUGCAUCCCACUACAUGAUGAUGCCUGAGGAGCCUUGGUUUUUUG [C73G C102U A119G] | -1.29
GACCAAUCUGCCCUCAGAGCUCGAGAACAUCUUCGGAUGCAGAGGAGGCAGGCUUCGGUGGCGCGAUAGCGCGAACGUCCUCAACCUCCAAUGCAUCCCACCACAUGAUGAUGCCUGAAGAGACUUGGUUUUUUG [C73G C123A] | 0.232
GACCAAUCUGCCCUCAGAGCUCGAGAACAUCUUCGGAUGCAGAGGAGGCAGGCUUCGGUGGCGCGAUAGCGCGAACGUCCUCAACCUCCAAUGCAUCCCACCACAUGAUGAUGCCUGAAGAGCAUUGGUGUUUUG [C73G C124A U130G] | 1.1
GACCAAUCUGCCCUCAGAGCUCGAGAACAUCUUCGGAUGCAGAGGAGGCAGGCUUCGGUGGCGCGAUAGCGCGAACUUCCUCAACCUCCAAUGCAUCCCACCACAUGAUGAUGUCUGAAGAGCCUUGGUUUUUUG [C73G G77U C114U] | -3.31
GACCAAUCUGCCCUCAGAGCUCGAGAACAUCUUCGGAUGCAGAGGAGGCAGGCUUCGGUGGCGCGAUAGCGCGAACGUCCUCAACCUCCAAUCCAUCCCACCACAUGAUGAUGCCUGAAGAGCCUUGGUUUUUUG [C73G G93C] | -2.05
GACCAAUCUGCCCUCAGAGCUCGAGAACAUCUUCGGAUGCAGAGGAGGCAGGCUUCGGUGGCGCGAUAGCGCGAACGUCCUCAACCUCCAAUGCAUCCCACCACAUGAUGAUCCCUGAAGAGCCUUGGUUUUUUG [C73G G113C] | -2.85
GACCAAUCUGCCCUCAGAGCUCGAGAACAUCUUCGGAUGCAGAGGAGGCAGGCUUCGGUGGCGCGAUAGCGCGAACGUCCUCAACCUCCAAUGCAUCCCACCACAUGAUGAUGCCUAAAGUGCCUUGGUUUUUUG [C73G G117A A121U] | -0.326
GACCAAUCUGCCCUCAGAGCUCGAGAACAUCUUCGGAUGCAGAGGAGGCAGGCUUCGGUGGCGCGAUAGCGCGAACGUCCUCAACCUCCAAUGCAUCCCACCACAUGAUGAUGCCUGAACAGCCUUGUUUUUUUG [C73G G120C G128U] | -1.34
GACCAAUCUGCCCUCAGAGCUCGAGAACAUCUUCGGAUGCAGAGGAGGCAGGCUUCGGUGGCGCGAUAGCGCGAACGUCCUCAACCUCCAAUGCAUCCCACCACAUGAUGAUGCCUGAAGAUGCUUGGUUUUUUG [C73G G122U C123G] | 0.776
GACCAAUCUGCCCUCAGAGCUCGAGAACAUCUUCGGAUGCAGAGGAGGCAGGCUUCGGUGGCGCGAUAGCGCGAACGUCCUCAACCUCCAAUGCAUCCCACCACAUGAUGAUGCCUGAAGAGCCUUGAUUUUUUG [C73G G128A] | -2.13
GACCAAUCUGCCCUCAGAGCUCGAGAACAUCUUCGGAUGCAGAGGAGGCAGGCUUCGGUGGCGCGAUAGCGCGAACGUCCGCAACCUCCAAUGCAUCCCACCACAUGAUGAUGCCUGAAGAGCCUUGGUUUUUUG [C73G U81G] | -3.66
GACCAAUCUGCCCUCAGAGCUCGAGAACAUCUUCGGAUGCAGAGGAGGCAGGCUUCGGUGGCGCGAUAGCGCGAACGUCCUCAACCUCCAAUGCAGCCCACAACAUGAUGAUGCCUGAAGAGCCUUGGUUUUUUG [C73G U96G C102A] | -3.86
GACCAAUCUGCCCUCAGAGCUCGAGAACAUCUUCGGAUGCAGAGGAGGCAGGCUUCGGUGGCGCGAUAGCGCGAACGUCCUCAACCUCCAAUGCAUCCCACCACAUGAUGAUGCCAGAAGAGCCUUGGUUUUUUG [C73G U116A] | -3.66
GACCAAUCUGCCCUCAGAGCUCGAGAACAUCUUCGGAUGCAGAGGAGGCAGGCUUCGGUGGCGCGAUAGCGCGAACGUCCUCAACCUCCAAUGCAUCCCACCACAUGAUGAUGCCUGAAGAGCCUUGGUCUUUUG [C73G U130C] | -0.482
